The values that follow come from paper PMC7156724, “Potent BRD4 inhibitor suppresses cancer cell-macrophage interaction” (Nature Communications, 2020).

Data set [1] is described as follows: in vitro. To be noted: human. On the procedure:
(§1) The concentration was calculated using the peak area ratio of analyte and internal […]
(§2) The results were calculated by the following equations:
(§3) % Unbound = 100 *FC / TC, % Bound = 100 * (1-FC / TC)
(§4) % Recovery = 100 * (FC + TC) / T0
(§5) TC = Total compound concentration as determined by the calculated concentration on the retentate side of the membrane
(§6) FC = Free compound concentration as determined by the calculated concentration on the dialysate side of the membrane […]
(§7) Equation of first order kinetics: […]
(§8) 8. Equilibrium dialysis assay. Binding with plasma protein and recovery rate of NHWD-870 were performed with human, CD-1 mouse and SD rat plasma as […]
(§9) described 2. […] The concentration was […]
(§10) calculated using the peak area ratio of analyte and internal standard. The results were calculated by the following equations: % Unbound = 100 *FC / TC, % Bound = 100 * (1-FC / TC); % Recovery = 100 * (FC + TC) / T0; TC = Total compound concentration as determined by the calculated concentration on the retentate side of the membrane; FC = Free compound concentration as determined by the (1 picture or pasted object on this page, not shown here) […]
(§11) calculated concentration on the dialysate side of the membrane; T0 = To t a l compound concentration as determined before dialysis. […]
(§12) 10. hERG channel assay. […]
(§13) HEK293 cell line stably

Data set [2] can be described thus: in vitro. To be noted: CD-1, mouse. On the procedure: as §1, §2, §3, §4, §5, §6, §7, §8, §9, §10, §11, §12, §13
The nature of data set [3]: in vitro. The conditions noted are these: SD, rat. Here is the method: as §1, §2, §3, §4, §5, §6, §7, §8, §9, §10, §11, §12, §13
In data set [4] the test system is TAMs. Nature of the data set: Number of TAMs after treatment with CSF1. Type of data set: cell-based, mouse. On the procedure: Fig. 6 CSF1/CSF1R signaling is critical for the tumor inhibitory effects of NHWD-870 and CSF1 induced ovarian cancer growth depends on macrophages. a Number of TAMs after treatment with the indicated concentration of CSF1 for 48 h. Data are presented as mean ± SEM from three independent experiments. b–d Schematics of the experiments (b). A2780 cells (pre-treated with DMSO or 100 nM NHWD-870 for 48 h) were seeded into the top chamber (transwell size: 0.4 μm), and TAMs (Mac, 40,000 cells per 24-well) in medium with PBS or 10 ng/ml CSF1 (c), or 50 ng/ml IgG or anti-CSF1R antibodies (d), were seeded into the bottom chamber. Shown are quantification of TAMs (c, d). Data are presented as mean ± SEM from three independent experiments. e Representative western blot analysis of A2780 cells stably transfected with CSF1 or empty vector (EV). Selected from three independent experiments. f Schematics of the animal experiments using an orthotopic mouse OC model, established by intraperitoneally injecting 1 × 10^6 (g–j) or 2 × 10^6 (k–m) human A2780 cells overexpressing CSF1 or control into female recipient nude mice. Mice were then treated with/without liposomal clodronate (LC) for 45 days (g–j) or treated with/without NHWD-870 (PO, QD, 3 mg/kg) for 37 days (k–m). g Increased mouse body weight was measured at the indicated time points (day 0-45 after LC treatment). h–j Net tumor weight (h), ascitic fluid volumes (i) tumor implantations in peritoneum, omentum and pevic cavity (j) were measured at day 45 from LC treatment. k–m Net tumor weight (k), ascitic fluid volumes (l) tumor implantations in peritoneum, omentum and pevic cavity (m) were measured at day 37 after NHWD-870 treatment. For g–m, data are presented as mean ± SEM from five different mice. p values were calculated using two-tailed, unpaired t tests in this figure. n.s, not significant; *p < 0.05; **p < 0.01; and ***p < 0.001. Source data are provided as a Source Data file. […]

Data set [5] concerns TAMs. Nature of the data set: Transwell co-culture of pretreated A2780 cells and TAMs with CSF1 or anti-CSF1R antibodies. To be noted: 10 ng/ml CSF1. The format is cell-based, mouse. Here is the method:
Fig. 6 CSF1/CSF1R signaling is critical for the tumor inhibitory effects of NHWD-870 and CSF1 induced ovarian cancer growth depends on macrophages. a Number of TAMs after treatment with the indicated concentration of CSF1 for 48 h. Data are presented as mean ± SEM from three independent experiments. b–d Schematics of the experiments (b). A2780 cells (pre-treated with DMSO or 100 nM NHWD-870 for 48 h) were seeded into the top chamber (transwell size: 0.4 μm), and TAMs (Mac, 40,000 cells per 24-well) in medium with PBS or 10 ng/ml CSF1 (c), or 50 ng/ml IgG or anti-CSF1R antibodies (d), were seeded into the bottom chamber. Shown are quantification of TAMs (c, d). Data are presented as mean ± SEM from three independent experiments. e Representative western blot analysis of A2780 cells stably transfected with CSF1 or empty vector (EV). Selected from three independent experiments. f Schematics of the animal experiments using an orthotopic mouse OC model, established by intraperitoneally injecting 1 × 10^6 (g–j) or 2 × 10^6 (k–m) human A2780 cells overexpressing CSF1 or control into female recipient nude mice. Mice were then treated with/without liposomal clodronate (LC) for 45 days (g–j) or treated with/without NHWD-870 (PO, QD, 3 mg/kg) for 37 days (k–m). g Increased mouse body weight was measured at the indicated time points (day 0-45 after LC treatment). h–j Net tumor weight (h), ascitic fluid volumes (i) tumor implantations in peritoneum, omentum and pevic cavity (j) were measured at day 45 from LC treatment. k–m Net tumor weight (k), ascitic fluid volumes (l) tumor implantations in peritoneum, omentum and pevic cavity (m) were measured at day 37 after NHWD-870 treatment. For g–m, data are presented as mean ± SEM from five different mice. p values were calculated using two-tailed, unpaired t tests in this figure. n.s, not significant; *p < 0.05; **p < 0.01; and ***p < 0.001. Source data are provided as a Source Data file.
CD45^+CD11b^+F4/80^+ TAMs were isolated from peritoneal metastasis of A2780 tumor-bearing mice and cultured in RPMI-1640 supplemented with 10% FBS, 1% penicillin/streptomycin, and 0–50 ng/ml CSF1 (R&D Systems) as indicated according to standard protocols. In the cancer cell-macrophage co-culture experiments, CSF1 was not added. In the transwell (Corning, pore size, 0.4 μm) co-culture experiments, tumor cells were placed into the upper chamber, and TAMs were seeded into the lower chamber.

Data set [6] has as its system PI3K/AKT1 and ERK phosphorylation. Nature of the data set: Western blot of p-PI3K, p-AKT1 and p-ERK in TAMs. Type of data set: cell-based, mouse. Here is the method:
Supplementary Figure 13. NHWD-870 inhibited CSF1/CSF1R signaling pathw ay to reduce TAM […]
TA M s ( 2 ×10^5 cells) (treated with or without 10 ng/ml CSF1 and 100 nM NHWD-870 for 48 h) were seeded into the 6-well bottom chamber, in the presence or absence of A2780 cells (pre-treated with or without 100 nM NHWD-870 for 48 h) seeded into the top chamber (transwell size: 0.4μm). Shown are schematics of the experiment and representative western blot analysis of the indicated proteins (a), and quantification of the relative levels of p-PI3K, p-AKT1 and p-ERK over their respective total protein (b). Data are presented as mean ± SEM from 3 independent experiments. p values were calculated using two-tailed, unpaired t tests. n.s, no significant; **, p<0.01; ***, p<0.001. Source data are provided as a Source Data file. […]
4. Protein extraction and w estern blot anal ysis. Freshly dissected unfixed tissue was homogenized in lysis buffer. The lysates were centrifuged at 13,000g for 10 minutes at 4°C. Supernatants were collected and determined with a Bradford Protein Assay kit (Bio-Rad, Hercules, CA). The cell lysates were subjected to SDS-PAGE followed by immunoblotting (Immobilon P; Millipore, Milford, MA) with specific antibodies followed by detection using an enhanced chemilumine scence kit (Amersham Life Science, Arlington Heights, IL). […]
For orientation: In western blotting, separated proteins are transferred to a membrane and probed.

The test system of data set [7] is TAMs. Description: Ki67 FACS of TAMs induced by CSF1. Type of data set: cell-based, mouse. To be noted: CSF1 treatment. On the procedure: Flow cytometry analyses were performed using antibodies listed in Supplementary Table 8. For cell surface markers, mouse TAM suspensions were stained with mouse APC-CD45, FITC-CD11b, PE-F4/80 or APC-F4/80, CD68, and PE-CD206 antibodies for 15 min on ice. For Ki67 staining, cells were fixed in 4% paraformaldehyde and stained with FITC-Ki67. Isotype matching antibody served as the negative control. Flow cytometry was performed on a FACSCalibur (BD Biosciences). Data were analyzed with BD CellQuest Pro software version 5.1.
Supplementary Figure 14. NHWD-870 and BRD4 deletion partially inhibite d prolifera tion of TAMs […]
(a) CD45+CD11b+F4/80 + TAMs in the orthotopic B16 melanoma model were harvested from tumors. Shown are representative FACS plots of TAMs. (b,c) Representative FACS plots (b) and quantification (c) of Ki67+ macrophages treated with 50 ng/ml CSF1, and DMSO or 25 or 50 nM NHWD-870. […]
TAMs induced by CSF1. (a-c) CD11b+F4/80+ macrophages in the orthotopic B16F10 melanoma model were harvested from tumor tissues. Shown are representative CD45+, CD11b+, F4/80+ FACS plots (a) and quantification of the percentage of Ki67+ cells after treatment with DMSO or NHWD-870 dependent on CSF1 stimulation (b,c). (d-g) FACS plots and quantification of the percentage of Ki67+ cells after CRISPR/Cas9-mediated BRD4 knockout (d,e) and c-MYC knockout (f,g) in CD11b+F4/80+ macrophages. CSF1 is added at the indicated concentration.
Please also see response to comment # 4 about our 2D assays, in which we used colony number to quantify the number of TAMs.
NHWD-870 treatment and the main differences are colony size.
6. For comparison purposes, it would be a good idea to compare the direct effect of NHWD-870 on in […]
marrow derived macrophage proliferation and gene expression in vitro). […]

The mark [8] stands for this setting: CSF1 treatment, individual replicates, Ctrl about 1.

“And” between values parts separate entries of the source, which are not always exact repeats. Equal values may be shown once.

Regarding `CC(=O)CC(c1ccccc1)c1c(O)c2ccccc2oc1=O` (stereo not drawn) [Warfarin, reference compound], the figures for the recovery in data set [1], in data set [2] and in data set [3] were 90.2%, 99.2% and 86.8%, respectively.

B1: CSF1: macrophage colony-stimulating factor, purchased from R&D Systems (protein, UniProt P09603 33-554, looked up)
Macrophage colony-stimulating …: EEVSEYCSHMIGSGHLQSLQRLIDSQMETSCQITFEFVDQEQLKDPVCYLKKAFLLVQDIMEDTMRFRDNTPNAIAIVQLQELSLRLKSCFTKDYEEHDKACVRTFYETPLQLLEKVKNVFNETKNLLDKDWNIFSKNCNNSFAECSSQDVVTKPDCNCLYPKAIPSSDPASVSPHQPLAPSMAPVAGLTWEDSEGTEGSSLLPGEQPLHTVDPGSAKQRPPRSTCQSFEPPETPVVKDSTIGGSPQPRPSVGAFNPGMEDILDSAMGTNWVPEEASGEASEIPVPQGTELSPSRPGGGSMQTEPARPSNFLSASSPLPASAKGQQPADVTGTALPRVGPVRPTGQDWNHTPQKTDHPSALLRDPPEPGSPRISSLRPQGLSNPSTLSAQPQLSRSHSSGSVLPLGELEGRRSTRDRRSPAEPEGGPASEGAARPLPRFNSVPLTDTGHERQSEGSFSPQLQESVFHLLVPSVILVLLAVGGLLFYRWRRRSHQEPQRADSPLEQPEGSPLTQDDRQVELPV
On to B1, for which the “proliferation of TAMs” value in data set [4] (48 h) is recorded as “increased proliferation of TAMs in a dose-dependent manner”. For the same molecule, the “Number of TAMs (Fig.6a)” value in data set [4] (CSF1 10) is 15.5 and 19.7 and 20.1. In addition, in data set [4] (CSF1 50), the “Number of TAMs (Fig.6a)” value was 45.6 and 59.6 and 67.2. In addition, the “rescue of TAM proliferation in co-culture with NHWD-870 pretreated A2780 cells” value in data set [5] is recorded as “partially rescue the inhibitory effects of NHWD-870”. Moreover, the “PI3K/AKT1 and ERK phosphorylation in TAMs” value in data set [6] (10 ng/ml CSF1) was “induced PI3K/AKT1 and ERK phosphorylation”. For the same molecule, in data set [6] (setting [8]), the “p-AKT1 (Sup Fig.13b quantification)” value was 7.5 and 6.3 and 5.51; the “p-ERK (Sup Fig.13b quantification)” value is 3.68 and 4.51 and 5.3; the “p-PI3K (Sup Fig.13b quantification)” value is 3.62 and 4.72 and 3.2. Moreover, the “fold induction of TAM proliferation” value in data set [7] is given as over 10 fold.
